Data taken from paper PMC11507401, “Functional and Physiological Characterization of Tyrosine Decarboxylases from Olea europaea L. Involved in the Synthesis of the Main Phenolics in Olive Fruit and Virgin Olive Oil” (International Journal of Molecular Sciences, 2024).

B1: OeTDC1 (Olea europaea subsp. europaea) (protein)
chain: MGSLQNQKPENGFTGAPIKPLDPEEFRRQGHMVIDFLADYYKNVEKYPVRSQVQPGYLRKRLPESAPHEPEPIEEILQDVQKDIVPGITHWQSPNYYAYFPSSGSIAGFLGEMLSTGFNVVGFNWMSSPAATELESIVMDWLGKMLNLPSSFLFSGGGGGVLQGTTCEGILCTLVAARDQMLNKIGRDNIGKLVVYGSDQTHSALQKAAQIAGIEPKNFRAVQTTKATAFGLTAEALRSTIESDVEAGLVPLFLCPTVGTTSSTAVDPIGPLCEVAKEYGMWVHVDAAYAGSACILPEYRHFLDGVENADSFSFNAHKWFLTTLDCCCLWVKNPSALVKALSTYPEYLRNKATDSNQVVDYKDWQITLSRRFRSLKLWLVLRSYGVANLRKFLRSHIQMAKNFEGLIGMDKRFEVVVPRNFATVCFRISPIEIGKNHIVSKEEVTNEFNSKLLESINEAGKIYVTHAVIGGVYVIRFCVGTTLTENRHVILAWKTIQEHANALLSMS

Experiments:
OeTDC1 = target: T1, OeTDC1 (Olea europaea, UniProt A0AB74UCV8); assay: activity of enzyme extracted and purified with or without PLP; type: biochemical; details: PLP in or omitted from lysis and purification buffers; tightly bound cofactor
T1 construct: gene TDC1

OeTDC2 = target: T2, OeTDC2 (Olea europaea, UniProt A0A8S0SA91); assay: as above; type: biochemical; details: PLP in or omitted from lysis and purification buffers; tightly bound cofactor
T2 construct: gene OLEA9_A073377

purified protein [1] = substrate: N[C@@H](Cc1ccc(O)cc1)C(=O)O; assay: purified protein; type: biochemical, Olea europaea; details: 50 mM Tris-HCl pH 8.0, 40 °C, 200 µM PLP, 15 min
purified protein [2] = substrate: N[C@@H](Cc1ccc(O)c(O)c1)C(=O)O; assay: purified protein; type: biochemical, Olea europaea; details: 50 mM Tris-HCl pH 8.0, 40 °C, 200 µM PLP, 15 min

T2 sequence (A0A8S0SA91 entry or part of it): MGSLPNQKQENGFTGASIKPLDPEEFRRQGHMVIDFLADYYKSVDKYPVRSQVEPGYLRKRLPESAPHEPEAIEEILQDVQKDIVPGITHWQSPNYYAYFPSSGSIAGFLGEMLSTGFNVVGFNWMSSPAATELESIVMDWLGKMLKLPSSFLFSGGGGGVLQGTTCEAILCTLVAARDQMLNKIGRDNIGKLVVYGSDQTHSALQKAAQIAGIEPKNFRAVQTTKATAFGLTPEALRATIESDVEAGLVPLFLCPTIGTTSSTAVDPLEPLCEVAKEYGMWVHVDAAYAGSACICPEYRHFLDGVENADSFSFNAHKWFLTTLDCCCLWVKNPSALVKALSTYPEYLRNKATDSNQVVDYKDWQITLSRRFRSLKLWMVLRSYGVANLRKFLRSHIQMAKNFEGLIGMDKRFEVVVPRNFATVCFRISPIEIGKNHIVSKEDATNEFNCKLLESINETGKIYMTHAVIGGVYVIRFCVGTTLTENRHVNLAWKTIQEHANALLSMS

Molecule | activity of enzyme extracted and purified with or without PLP (OeTDC1) | activity of enzyme extracted and purified with or without PLP (OeTDC2) | Km (purified protein [1]) | Vmax (purified protein [1]) | kcat (purified protein [1]) | kcat/Km (purified protein [1]) | Km (purified protein [2]) | Vmax (purified protein [2]) | kcat (purified protein [2]) | kcat/Km (purified protein [2])
Cc1ncc(COP(=O)(O)O)c(C=O)c1O [PLP] | it was observed that PLP binds tightly to the olive TDC proteins | it was observed that PLP binds tightly to the olive TDC proteins | – | – | – | – | – | – | – | –
B1 | – | – | 1900 µM | 12.4 µmol/min/mg | 12.8 s⁻¹ | 6720 M⁻¹ s⁻¹ | 340 µM | 4.08 µmol/min/mg | 3.82 s⁻¹ | 11300 M⁻¹ s⁻¹
